Measurements taken from patent publication US5932697A, “Synthetic antifreeze peptide” (Virginia Tech Intellectual Properties, Inc., priority 1991, dated 1999).

System: JM109 (DE3)
Experiment: Studies of cell viability in strains expressing WF8R fusion proteins
Type: cell-based, E. coli
Details: JM109 (DE3) [pX28] or [pX284], intracellular expression as P10 fusion; applicants' conclusion from cell viability studies
Text: The pX28 and pX284 were transformed into JM109 (DE3). The proteins produced in either the JM109 (DE3) [pX28] or in the JM109 (DE3) [pX284] after induction by IPTG in mid- or late-logarithmic growth phase, have been analyzed by sodium dodecyl sulfate (SDS)--polyacrylamide gel electrophoresis (SDS-PAGE). […] Studies of cell viability in these strains have shown that both strains are adversely affected with respect to growth and stability of the plasmid (these effects were more pronounced in the pX28 harboring strain). […] To avert this problem the applicants decided to protect the fusion protein from intracellular degradation, as well as to protect the cells from the toxicity of WF8R, by adding to the fusion a C-terminal end derived from E. coli β-galactosidase.

B1: WF8R: synthetic 98 amino acid antifreeze peptide with eight eleven-amino-acid repeats, modeled on winter flounder AFP, expressed in E. coli (protein)
chain: MSTASDAAAAAAATAATAAAAAAATAATAAAAAAATAATAAAAAAATAATAAAAAAATAATAAAAAAATAATAAKAAALTAANAAAAAAATAAAAARG
  toxicity to the cells (growth and stability of the plasmid adversely affected): toxic to the cells
